Broadly, the IC50 is the concentration that gives 50% inhibition. One may read the Ki as a measure of affinity in units of concentration, obtained from inhibition or displacement. A low value points to tighter binding.

Series [1] addresses T1, metallo-beta-lactamase (beta-lactamase II, 5/B/6) (Bacillus cereus 5/B/6, UniProt P14488 SEQ:2-228).
T1 sequence: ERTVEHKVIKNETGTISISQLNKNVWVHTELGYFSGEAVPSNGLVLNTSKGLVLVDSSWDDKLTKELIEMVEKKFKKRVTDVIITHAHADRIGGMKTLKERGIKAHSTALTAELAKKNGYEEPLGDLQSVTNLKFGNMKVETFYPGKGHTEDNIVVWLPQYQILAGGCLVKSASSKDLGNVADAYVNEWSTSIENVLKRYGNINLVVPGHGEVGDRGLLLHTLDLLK
The series is described as follows: inhibition; 4.3 mM cephalosporin C, 50 mM MOPS pH 7.0, no added Zn. To be noted: tags: expressed in E. coli TAP56 from pRE2/bla.

Series [2] concerns the target T1, metallo-beta-lactamase (beta-lactamase …). The series is described as follows: inhibition; noncompetitive; Ki' (enzyme-substrate-inhibitor complex) 15 nM; cephalosporin C substrate, 50 mM MOPS pH 7.0, 30 C. As to conditions: tags: expressed in E. coli TAP56 from pRE2/bla.

For UGGCUGCAGGGUCUGGCCCCCCGUUUGGUG (ssRNA) [30-mer RNA], the half-inhibitory concentration (IC50) in series [1] was 11 nM. The Ki in series [2] came to 2 nM.

(Values after US20080119432, “Inhibition Of Metallo-Beta-Lactamase By Rna” (published 2008).)
